B1: STIM1 CC1_([TM-distal])-CC2 I383R (domain or fragment, human, UniProt Q13586 312-387, looked up)
chain: SRQKYAEEELEQVREALRKAEKELESHSSWYAPEALQKWLQLTHEVEVQYYNIKKQNAEKQLLVAKEGAEKRKKKR
B2: STIM1 CC1_([TM-distal])-CC2 A380R (domain or fragment, human, UniProt Q13586 312-387, looked up)
chain: B1 chain with A69R, R72I
B3: STIM1 CC1_([TM-distal])-CC2 K382E/K384E/K385E/K386E (domain or fragment, human, UniProt Q13586 312-387, looked up)
chain: B1 chain with K71E, R72I, K73E, K74E, K75E
B4: STIM1 CC1_([TM-distal])-CC2 E318Q/E319Q/E320Q/E322Q (domain or fragment, human, UniProt Q13586 312-387, looked up)
chain: B1 chain with E7Q, E8Q, E9Q, E11Q, R72I

For series [1], the target named is B4. Briefly: pull-down.
For series [2], the target named is STIM1 CC1_([TM-distal])-CC2 V324P (human, UniProt Q13586 312-387, V324P). The series is described as follows: pull-down.
Chain of STIM1 CC1_([TM-distal])-CC2 V324P (Q13586 312-387 V324P): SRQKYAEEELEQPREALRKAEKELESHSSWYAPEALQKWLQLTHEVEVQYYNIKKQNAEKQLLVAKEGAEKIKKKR
For series [3], the target named is B2. The series is described as follows: pull-down.
The target of series [4] is B1. The series is described as follows: pull-down.
The target in series [5] is STIM1 CC1_([TM-distal])-CC2 (residues 312-387) (human, UniProt Q13586 312-387). The series is described as follows: NMR titration.
The series “SEC-MALS” concerns the molecule itself. The series is described as follows: SEC-MALS.

Usually Kd stands for the equilibrium constant for the complex coming apart.

Numbering of substitutions follows the chain as printed. Names may count otherwise.

On to ELNELAEFARLQDQLDHRGDH (domain or fragment, human, UniProt Q96D31 272-292, looked up) [MBP-Orai1 C_(272–292)], for which the binding result in series [1], in series [2], in series [3] and in series [4] was “binds” in each case. In the case of ELNELAEFARLQDQLDHRGDH (peptide, UniProt Q96D31 272-292, looked up) [Orai1 C_(272–292)], the Kd in series [5] fell in the range of 100 to 600 µM. In the case of B1, the binding result in “SEC-MALS” is on record as “binds”. B2: the binding result in the series “SEC-MALS” is on record as “binds”. For the molecule B3, the binding result in the series “SEC-MALS” is “binds”. The same measure, in the same setting: under B4 stands “binds”.

Source of the values: paper PMC3927877 (Nature Communications, 2013).
